Laboratory results reported in PMC5342696.

Target: membrane IgG (mIgG) on IgG-expressing B-cell lines (human (endogenous in CRL 2632 and CRL 2289)) [IgG part: P01857]
Experiment: hemadsorption/hemagglutination (protein G-RBC rosetting); mIgG-expressing B-cells exposed to protein G-RBCs at 4°C without added mAb, rosettes scored by phase contrast microscopy

- HA background (percent rosetted cells): < 30%
Substance: protein G on red blood cells (protein G-RBC) (from UniProt P19909 34-562) (natural protein)
